Series [1] deals with the molecule itself. Briefly: SEC-MALS; 50 ul of fully purified protein at approximately 1-4 mg/ml on a KW-803 column (Shodex), 0.5 ml/min, supplemented with 1 uM ZnSO4 (untreated protein). On the technique in general: Size exclusion chromatography separates by hydrodynamic size, large species first.
Series [2] deals with the molecule itself. Briefly: SEC; gel filtration at the end of purification, 20 mM Tris-HCl (pH 7.0), 200 mM NaCl, 100 uM ZnSO4; data not shown.

B1: ZitR protein of Lactococcus lactis subspecies cremoris strain MG1363, untagged recombinant (S2A, A4R, D8E) form (natural protein, UniProt A2RNS2 1-145, looked up)
chain: MALRNQIEQFLGAIMQFAENKHEILLGECESNVKLTSTQEHILMILAAEVSTNARIAEQLKISPAAVTKALKKLQEQELIKSSRATNDERVVLWSLTEKAIPVAKEHAAHHEKTLSTYQELGDKFTDEEQKVISQFLSVLTEEFR
notes: A minor tetrameric form was also seen at the end of the purification; also called ZitRMG; holo-ZitRMG
What is called stoichiometry N is a count of units in the complex or per binding partner. For B1, the “stoichiometry N” value in series [1] was determined as 2; in series [2] it was 4.

For the origin of these results see paper PMC6372160, “Biophysical and structural characterization of a zinc-responsive repressor of the MarR superfamily” (PLoS ONE, 2019).
